Experiments:
[1] = target: D100 fragment of fibrinogen (mol. weight 100,000 Da); experiment: ELISA; solid-phase binding: wells coated with Dyn A or fibrinogen D100 overnight at 4 °C, 3 % BSA; GST-αMI-domains in 20 mM Tris-HCl pH 7.4, 100 mM NaCl, 1 mM MgCl2, 1 mM CaCl2, 0.05 % Tween 20, 5 % glycerol, 1.5 h at 22 °C; detected with anti-GST mAb
[2] = target: integrin Mac-1 (αMβ2, CD11b/CD18) on HEK293 cells (UniProt P11215); experiment: inhibition of cell adhesion; calcein-labeled Mac-1-HEK293 cells preincubated with 1 μg/ml NIF, added to wells coated with 2 μM Dyn A; heparin 10 μg/ml on the coated wells where named; adhesion without inhibitors = 100 %
[3] = target: integrin Mac-1 on IC-21 murine macrophages (mouse (endogenous in IC-21)) (UniProt P05555)
integrin Mac-1 on IC-21 murine macrophages (mouse (endogenous in IC-21)), sequence (P05555 17-1153, chain 1 of 2): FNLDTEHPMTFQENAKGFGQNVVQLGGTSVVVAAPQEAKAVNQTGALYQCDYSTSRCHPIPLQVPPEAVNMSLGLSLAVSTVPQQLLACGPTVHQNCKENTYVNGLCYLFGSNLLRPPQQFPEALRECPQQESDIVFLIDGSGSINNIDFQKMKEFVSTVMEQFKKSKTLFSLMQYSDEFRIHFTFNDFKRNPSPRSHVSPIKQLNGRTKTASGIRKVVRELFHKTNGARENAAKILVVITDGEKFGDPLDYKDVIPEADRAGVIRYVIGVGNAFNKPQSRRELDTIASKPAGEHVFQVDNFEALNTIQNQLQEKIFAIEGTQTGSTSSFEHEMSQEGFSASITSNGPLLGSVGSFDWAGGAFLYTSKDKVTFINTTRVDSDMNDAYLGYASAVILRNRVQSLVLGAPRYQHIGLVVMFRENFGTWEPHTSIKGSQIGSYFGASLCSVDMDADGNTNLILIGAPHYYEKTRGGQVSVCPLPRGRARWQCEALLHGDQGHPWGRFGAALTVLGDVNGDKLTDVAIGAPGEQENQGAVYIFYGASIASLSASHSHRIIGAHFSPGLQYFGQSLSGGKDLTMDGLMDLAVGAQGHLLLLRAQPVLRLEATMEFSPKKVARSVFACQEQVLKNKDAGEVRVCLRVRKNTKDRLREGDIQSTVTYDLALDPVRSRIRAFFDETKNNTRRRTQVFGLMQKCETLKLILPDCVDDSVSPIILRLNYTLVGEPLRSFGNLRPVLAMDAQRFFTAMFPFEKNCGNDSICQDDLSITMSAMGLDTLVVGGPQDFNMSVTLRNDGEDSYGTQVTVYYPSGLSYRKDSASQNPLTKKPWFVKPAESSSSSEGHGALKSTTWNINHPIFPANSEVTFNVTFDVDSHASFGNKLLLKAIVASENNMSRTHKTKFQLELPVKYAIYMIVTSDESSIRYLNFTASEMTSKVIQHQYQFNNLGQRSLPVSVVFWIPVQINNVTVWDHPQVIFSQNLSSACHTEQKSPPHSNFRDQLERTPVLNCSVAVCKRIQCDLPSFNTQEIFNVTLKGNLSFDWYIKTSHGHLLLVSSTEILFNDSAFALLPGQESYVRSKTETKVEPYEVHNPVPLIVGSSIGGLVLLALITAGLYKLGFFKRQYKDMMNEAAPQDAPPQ
integrin Mac-1 on IC-21 murine macrophages (mouse (endogenous in IC-21)), sequence (P11835 24-771, chain 2 of 2, further chain): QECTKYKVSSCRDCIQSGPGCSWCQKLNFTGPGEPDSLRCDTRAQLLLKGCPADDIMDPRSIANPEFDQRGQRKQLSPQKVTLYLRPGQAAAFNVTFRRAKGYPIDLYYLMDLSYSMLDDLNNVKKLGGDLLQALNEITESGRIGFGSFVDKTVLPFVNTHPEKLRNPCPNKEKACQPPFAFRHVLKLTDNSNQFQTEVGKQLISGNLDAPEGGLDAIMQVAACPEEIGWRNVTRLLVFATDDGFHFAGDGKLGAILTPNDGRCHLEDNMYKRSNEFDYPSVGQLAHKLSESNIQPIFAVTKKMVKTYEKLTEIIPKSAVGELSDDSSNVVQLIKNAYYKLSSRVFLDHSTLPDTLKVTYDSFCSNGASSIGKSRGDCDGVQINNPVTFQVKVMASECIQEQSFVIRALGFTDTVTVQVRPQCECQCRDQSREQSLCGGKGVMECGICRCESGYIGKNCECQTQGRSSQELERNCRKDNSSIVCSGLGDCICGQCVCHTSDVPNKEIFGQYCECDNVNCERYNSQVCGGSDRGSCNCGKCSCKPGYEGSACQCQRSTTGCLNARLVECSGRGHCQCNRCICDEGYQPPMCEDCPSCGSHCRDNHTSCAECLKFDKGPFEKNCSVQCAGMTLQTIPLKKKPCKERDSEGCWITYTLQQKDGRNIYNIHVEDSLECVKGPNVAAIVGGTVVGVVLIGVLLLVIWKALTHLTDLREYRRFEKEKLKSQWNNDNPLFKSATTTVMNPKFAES

fold binding over the nonactive αMI-domain [1] [fold] | Substance | percent inhibition of the adhesion of Mac-1-HEK293 cells to Dyn A (2 μM coating) [2] [%] | percent inhibition of the adhesion of Mac-1-HEK293 cells to Dyn A (2 μM coating), NIF combined with heparin [2] [%] | inhibition by NIF (2 μg/ml) of the phagocytosis of Dyn A-coated beads by IC-21 macrophages (blocked pair: Dyn A and Mac-1) [3] [%]
3.5 | GST-αMI-domain, active conformation (residues Glu123-Lys315) (from UniProt P11215 139-331) (domain or fragment) |  |  | 
 | Neutrophil inhibitory factor (NIF) (natural protein) | 65 | > 95 | 70

— paper PMC4481117
